Columns and labels:
Experiment in all cases: EMSA
Settings in all cases: 50 mM Tris-HCl pH 8.0, 5 mM EDTA, 1 mM DTT, 100 mg/ml BSA (so in the source), 6% glycerol, on ice 20 min, 4% native PAGE in 6.7 mM Tris-HCl pH 8.0, 3.3 mM Na …, scale: fold of wild-type affinity
[1] = test system: RecG[A693Q] (Escherichia coli K-12 MG1655?)
[2] = test system: RecG[Y690A] (Escherichia coli K-12 MG1655?)
[3] = test system: RecG[ΔC1] (Escherichia coli K-12 MG1655?)
[4] = no Mg2+, 5 mM EDTA, RecG 0-100 nM, DNA 0.2 nM

Measured: binding signal

J12 Holliday junction
1: [1]; [4] | [2]; [4] | [3]; [4]

replication fork lacking a lagging strand
1: [1] | [2] | [3]
